Assay results from patent US20130315910A1 (Xencor, published 2013).

Key:
cynoFcγRIIb [1] = target: T1, cynoFcγRIIb (Macaca fascicularis, UniProt A0A140HDP4); experiment: SPR
T1 construct: extracellular region, C-terminal His- and GST-tag; also called cynomolgus monkey FcγRIIb
T1 sequence (receptor extracellular region): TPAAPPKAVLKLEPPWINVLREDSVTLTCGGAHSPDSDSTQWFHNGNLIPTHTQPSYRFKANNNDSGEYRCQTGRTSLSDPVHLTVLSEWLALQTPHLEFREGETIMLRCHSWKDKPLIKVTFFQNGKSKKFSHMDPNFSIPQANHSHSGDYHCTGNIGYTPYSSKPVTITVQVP

cynoFcγRIIIa = target: T2, cynoFcγRIIIa (Macaca fascicularis, UniProt Q8SPW2); experiment: SPR
T2 construct: extracellular region, C-terminal His- and GST-tag; also called cynomolgus monkey FcγRIIIa
T2 sequence (Q8SPW2 17-208): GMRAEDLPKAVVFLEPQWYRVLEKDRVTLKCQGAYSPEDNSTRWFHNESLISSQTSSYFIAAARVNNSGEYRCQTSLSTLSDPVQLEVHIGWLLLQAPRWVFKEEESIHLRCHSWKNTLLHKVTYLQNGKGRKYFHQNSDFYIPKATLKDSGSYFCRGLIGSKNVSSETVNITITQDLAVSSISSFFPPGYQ

mFcγRIIb [2] = target: T3, mFcγRIIb (Mus musculus, UniProt P08101); experiment: SPR
T3 construct: extracellular region, C-terminal His- and GST-tag; also called mouse FcγRII
T3 sequence (receptor extracellular region, looked up): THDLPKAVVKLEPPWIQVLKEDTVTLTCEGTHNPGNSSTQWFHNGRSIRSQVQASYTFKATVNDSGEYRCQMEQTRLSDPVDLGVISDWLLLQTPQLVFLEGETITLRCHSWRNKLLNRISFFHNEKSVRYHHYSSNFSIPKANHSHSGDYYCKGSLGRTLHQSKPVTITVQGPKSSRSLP

mFcγRIV = target: T4, mFcγRIV; experiment: SPR
T4 construct: also called mouse FcγRIV; not shown: C-terminal His and GST tags (named only on our card)
T4 chain: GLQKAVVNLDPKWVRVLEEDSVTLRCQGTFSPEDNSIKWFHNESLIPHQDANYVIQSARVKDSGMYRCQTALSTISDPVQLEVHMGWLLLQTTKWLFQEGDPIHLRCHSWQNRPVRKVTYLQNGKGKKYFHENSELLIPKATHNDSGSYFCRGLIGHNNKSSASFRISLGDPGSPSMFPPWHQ

[3] = target: T5, human FcγRIIIa (158V), His- and GST-tagged (human, UniProt P08637 17-208); experiment: SPR
T5 construct: also called V158 FcγRIIIa; VIIIa; not shown: 6xHis and GST tags of the pTT5 vector
T5 sequence (P08637 17-208 F176V): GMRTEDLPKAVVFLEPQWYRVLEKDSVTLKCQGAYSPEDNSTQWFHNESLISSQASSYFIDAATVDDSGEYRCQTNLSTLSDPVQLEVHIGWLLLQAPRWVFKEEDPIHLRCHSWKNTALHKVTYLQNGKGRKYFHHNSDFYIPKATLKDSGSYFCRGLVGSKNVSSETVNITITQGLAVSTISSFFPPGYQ

[4] = target: T6, human FcγRI receptor protein (R&D Systems) (human, UniProt P12314 16-288); experiment: SPR
T6 construct: also called soluble FcγRI; solFcγRI
T6 sequence (P12314 16-288 limits assumed): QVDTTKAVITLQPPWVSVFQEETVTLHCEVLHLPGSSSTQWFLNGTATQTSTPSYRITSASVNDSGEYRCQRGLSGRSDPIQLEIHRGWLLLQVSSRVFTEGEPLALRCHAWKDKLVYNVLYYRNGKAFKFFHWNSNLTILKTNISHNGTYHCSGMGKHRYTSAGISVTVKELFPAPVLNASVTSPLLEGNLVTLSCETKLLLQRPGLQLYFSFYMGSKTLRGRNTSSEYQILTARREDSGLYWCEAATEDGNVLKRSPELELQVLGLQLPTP

[5] = target: T7, human FcγRIIb receptor protein (R&D Systems) (human, UniProt P31994 46-217); experiment: SPR
T7 construct: Bought protein injected over captured antibody in Biacore; also called CD32b
T7 sequence (looked up): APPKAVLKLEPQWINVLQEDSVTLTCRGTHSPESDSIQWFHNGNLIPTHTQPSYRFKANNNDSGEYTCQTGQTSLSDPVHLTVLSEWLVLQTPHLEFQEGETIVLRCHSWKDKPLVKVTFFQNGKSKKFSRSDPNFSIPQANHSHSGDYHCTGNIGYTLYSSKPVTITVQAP

[6] = target: T8, human FcγRIIa (131H), His- and GST-tagged (human, UniProt P12318 34-217); experiment: SPR
T8 construct: also called H131 FcγRIIa; HIIa; not shown: 6xHis and GST tags of the pTT5 vector
T8 sequence (looked up): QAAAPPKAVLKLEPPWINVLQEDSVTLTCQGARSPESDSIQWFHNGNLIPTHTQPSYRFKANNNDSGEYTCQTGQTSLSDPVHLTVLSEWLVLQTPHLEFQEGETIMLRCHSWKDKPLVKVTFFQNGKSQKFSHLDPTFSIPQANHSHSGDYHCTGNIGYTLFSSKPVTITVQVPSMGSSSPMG

[7] = target: T9, human FcγRIIa (131R), His- and GST-tagged (human, UniProt P12318 34-217); experiment: SPR
T9 construct: Expressed in HEK293T cells, purified by nickel chromatography; also called R131 FcγRIIa; not shown: 6xHis and GST tags of the pTT5 vector
T9 sequence (looked up): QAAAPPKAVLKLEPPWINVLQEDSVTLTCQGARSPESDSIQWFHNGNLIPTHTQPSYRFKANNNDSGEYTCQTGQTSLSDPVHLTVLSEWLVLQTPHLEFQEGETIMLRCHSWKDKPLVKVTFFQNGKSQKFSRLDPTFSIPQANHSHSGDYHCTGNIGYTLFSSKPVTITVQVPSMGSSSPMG

mFcγRIIb [8] = target: T3, mFcγRIIb; experiment: SPR, off-rate
Procedure: (§1) Variants were screened for receptor affinity using Biacore™ technology, also referred to as Biacore herein, a surface plasmon resonance (SPR) based technology for studying biomolecular interactions in real time. SPR measurements were performed using a Biacore 3000 instrument (Biacore, Piscataway, N.J.). A protein A/G (Pierce Biotechnology) CM5 biosensor chip (Biacore) was generated using a standard primary amine coupling protocol. All measurements were performed using HBS-EP buffer (10 mM HEPES pH 7.4, 0.15 M NaCl, 3 mM EDTA, 0.005% vol/vol surfactant P20, Biacore). Antibodies at 20 nM or 50 nM in HBS-EP buffer were immobilized on the protein A/G surface and FcγRs were injected. After each cycle, the surface was regenerated by injecting glycine buffer (10 mM, pH 1.5). Data were processed by zeroing time and response before the injection of FcγR and by subtracting appropriate nonspecific signals (response of reference channel and injection of running buffer). Kinetic analyses were performed by global fitting of binding data with a 1:1 Langmuir binding model using BIAevaluation software (Biacore).
(§2) Variant antibodies were tested for their affinity to mouse or cynologous monkey FcγRs using Biacore SPR as described above. Specifically, antibodies were first immobilized on a protein A/G chip to high density, and then followed by injections of the extracellular domain of the mouse or cynologous monkey FcγR of interest. Both association and dissociation phases were tracked in real time using the Biacore technology.

cynoFcγRIIb [9] = target: T1, cynoFcγRIIb; experiment: SPR, off-rate
Procedure: as §1, §2
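Wherever Fold vs WT IgG1 (off-rate) is given: fold improvement over WT IgG1 so higher means slower dissociation than WT.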

B1: H268E (antibody, human IgG1, kappa)
heavy: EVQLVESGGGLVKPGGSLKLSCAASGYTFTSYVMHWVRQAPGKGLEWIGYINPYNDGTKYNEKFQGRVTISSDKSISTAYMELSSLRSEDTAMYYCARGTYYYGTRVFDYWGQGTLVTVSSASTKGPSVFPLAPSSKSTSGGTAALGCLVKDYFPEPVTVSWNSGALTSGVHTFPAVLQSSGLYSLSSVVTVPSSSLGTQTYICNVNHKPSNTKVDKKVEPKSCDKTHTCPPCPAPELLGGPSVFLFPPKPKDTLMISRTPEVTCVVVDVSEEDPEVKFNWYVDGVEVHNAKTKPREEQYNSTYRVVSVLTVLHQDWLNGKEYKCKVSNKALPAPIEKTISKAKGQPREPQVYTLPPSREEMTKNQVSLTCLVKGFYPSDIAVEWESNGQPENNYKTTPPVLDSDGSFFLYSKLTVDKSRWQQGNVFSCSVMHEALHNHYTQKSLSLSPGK
light: DIVMTQSPATLSLSPGERATLSCRSSKSLQNVNGNTYLYWFQQKPGQSPQLLIYRMSNLNSGVPDRFSGSGSGTEFTLTISSLEPEDFAVYYCMQHLEYPITFGAGTKLEIKRTVAAPSVFIFPPSDEQLKSGTASVVCLLNNFYPREAKVQWKVDNALQSGNSQESVTEQDSKDSTYSLSSTLTLSKADYEKHKVYACEVTHQGLSSPVTKSFNRGEC
notes: HuAM4G7 anti-CD19 IgG1 (m1) with this Fc substitution, EU index; copies: 2 + 2
Fold vs WT IgG1 (off-rate) (cynoFcγRIIb [1]): 2.23 fold
Fold vs WT IgG1 (off-rate) (cynoFcγRIIIa): 1.51 fold
Fold vs WT IgG1 (off-rate) (mFcγRIIb [2]): 2.44 fold
Fold vs WT IgG1 (off-rate) (mFcγRIV): 1.42 fold
Fold vs WT IgG1 [3]: 2.19 fold
Kd [3]: 87.5 nM
Fold vs WT IgG1 [4]: 2.74 fold
Kd [4]: 0.12 nM
Fold vs WT IgG1 [5]: 2.62 fold
Kd [5]: 560 nM
Fold vs WT IgG1 [6]: 1.43 fold
Kd [6]: 453 nM
Fold vs WT IgG1 [7]: 3.19 fold
Kd [7]: 269 nM

B2: S239E (antibody, human IgG1, kappa)
heavy: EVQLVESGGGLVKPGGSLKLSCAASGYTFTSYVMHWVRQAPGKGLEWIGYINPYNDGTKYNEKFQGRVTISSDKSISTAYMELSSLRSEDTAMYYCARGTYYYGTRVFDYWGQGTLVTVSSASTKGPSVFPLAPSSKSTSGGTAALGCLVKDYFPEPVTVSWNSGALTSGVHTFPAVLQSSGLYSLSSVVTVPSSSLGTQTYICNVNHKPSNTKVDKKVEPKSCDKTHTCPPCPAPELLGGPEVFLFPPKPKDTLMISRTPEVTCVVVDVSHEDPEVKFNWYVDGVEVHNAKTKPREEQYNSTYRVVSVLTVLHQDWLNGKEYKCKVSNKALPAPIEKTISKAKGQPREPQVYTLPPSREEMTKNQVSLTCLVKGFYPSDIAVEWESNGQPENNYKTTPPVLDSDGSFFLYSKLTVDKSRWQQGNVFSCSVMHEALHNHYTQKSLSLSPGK
light: DIVMTQSPATLSLSPGERATLSCRSSKSLQNVNGNTYLYWFQQKPGQSPQLLIYRMSNLNSGVPDRFSGSGSGTEFTLTISSLEPEDFAVYYCMQHLEYPITFGAGTKLEIKRTVAAPSVFIFPPSDEQLKSGTASVVCLLNNFYPREAKVQWKVDNALQSGNSQESVTEQDSKDSTYSLSSTLTLSKADYEKHKVYACEVTHQGLSSPVTKSFNRGEC
notes: as for B1
Fold vs WT IgG1 (off-rate) (cynoFcγRIIb [1]): 1.25 fold
Fold vs WT IgG1 (off-rate) (cynoFcγRIIIa): 2.26 fold
Fold vs WT IgG1 (off-rate) (mFcγRIIb [2]): 3.1 fold
Fold vs WT IgG1 (off-rate) (mFcγRIV): 1.93 fold
Fold vs WT IgG1 [3]: 3.49 fold
Kd [3]: 54.8 nM
Fold vs WT IgG1 [4]: 1.65 fold
Kd [4]: 0.2 nM
Fold vs WT IgG1 [5]: 0.803 fold
Kd [5]: 1830 nM
Fold vs WT IgG1 [6]: 0.49 fold
Kd [6]: 1320 nM
Fold vs WT IgG1 [7]: 0.688 fold
Kd [7]: 1250 nM

B3: L235F/S267E (antibody, human IgG1, kappa)
heavy: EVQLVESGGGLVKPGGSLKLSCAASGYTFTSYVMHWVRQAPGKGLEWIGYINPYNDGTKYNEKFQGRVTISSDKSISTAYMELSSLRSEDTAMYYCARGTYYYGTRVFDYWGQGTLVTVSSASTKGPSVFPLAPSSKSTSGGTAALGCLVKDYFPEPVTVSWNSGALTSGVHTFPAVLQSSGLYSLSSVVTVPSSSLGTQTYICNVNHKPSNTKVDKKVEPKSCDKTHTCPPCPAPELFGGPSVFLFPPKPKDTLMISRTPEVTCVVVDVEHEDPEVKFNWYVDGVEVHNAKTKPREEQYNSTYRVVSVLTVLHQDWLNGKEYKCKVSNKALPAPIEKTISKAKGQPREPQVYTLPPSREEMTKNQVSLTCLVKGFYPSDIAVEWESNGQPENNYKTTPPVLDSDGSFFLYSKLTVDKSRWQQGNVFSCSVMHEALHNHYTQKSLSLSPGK
light: DIVMTQSPATLSLSPGERATLSCRSSKSLQNVNGNTYLYWFQQKPGQSPQLLIYRMSNLNSGVPDRFSGSGSGTEFTLTISSLEPEDFAVYYCMQHLEYPITFGAGTKLEIKRTVAAPSVFIFPPSDEQLKSGTASVVCLLNNFYPREAKVQWKVDNALQSGNSQESVTEQDSKDSTYSLSSTLTLSKADYEKHKVYACEVTHQGLSSPVTKSFNRGEC
notes: HuAM4G7 anti-CD19 IgG1 (m1) with these Fc substitutions, EU index; copies: 2 + 2
Fold vs WT IgG1 (off-rate) (cynoFcγRIIb [1]): 1.39 fold
Fold vs WT IgG1 (off-rate) (cynoFcγRIIIa): 0.255 fold
Fold vs WT IgG1 (off-rate) (mFcγRIV): 0.515 fold
binding result (mFcγRIIb [8]): no binding
binding result [3]: no binding
Fold vs WT IgG1 [4]: 0.0176 fold
Kd [4]: 18.7 nM
Fold vs WT IgG1 [5]: 28.4 fold
Kd [5]: 51.7 nM
Fold vs WT IgG1 [6]: 0.402 fold
Kd [6]: 1610 nM
Fold vs WT IgG1 [7]: 32.5 fold
Kd [7]: 26.4 nM

B4: V266M (antibody, human IgG1, kappa)
heavy: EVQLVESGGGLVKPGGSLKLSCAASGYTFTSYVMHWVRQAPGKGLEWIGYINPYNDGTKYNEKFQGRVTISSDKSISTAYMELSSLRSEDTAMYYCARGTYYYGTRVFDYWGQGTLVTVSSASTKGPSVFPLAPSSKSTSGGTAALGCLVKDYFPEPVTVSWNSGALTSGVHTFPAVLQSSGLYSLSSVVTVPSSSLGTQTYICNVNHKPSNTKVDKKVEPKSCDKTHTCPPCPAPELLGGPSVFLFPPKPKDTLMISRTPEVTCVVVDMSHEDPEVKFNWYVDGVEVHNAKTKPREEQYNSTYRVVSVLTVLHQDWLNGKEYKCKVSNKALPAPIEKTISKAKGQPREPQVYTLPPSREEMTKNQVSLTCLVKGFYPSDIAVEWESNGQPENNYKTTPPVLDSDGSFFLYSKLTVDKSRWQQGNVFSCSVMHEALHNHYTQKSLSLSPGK
light: DIVMTQSPATLSLSPGERATLSCRSSKSLQNVNGNTYLYWFQQKPGQSPQLLIYRMSNLNSGVPDRFSGSGSGTEFTLTISSLEPEDFAVYYCMQHLEYPITFGAGTKLEIKRTVAAPSVFIFPPSDEQLKSGTASVVCLLNNFYPREAKVQWKVDNALQSGNSQESVTEQDSKDSTYSLSSTLTLSKADYEKHKVYACEVTHQGLSSPVTKSFNRGEC
notes: as for B1
Fold vs WT IgG1 (off-rate) (cynoFcγRIIIa): 0.433 fold
Fold vs WT IgG1 (off-rate) (mFcγRIIb [2]): 2.04 fold
binding result (cynoFcγRIIb [9]): no binding
Fold vs WT IgG1 [3]: 0.547 fold
Kd [3]: 350 nM
Fold vs WT IgG1 [4]: 1.25 fold
Kd [4]: 0.264 nM
Fold vs WT IgG1 [5]: 1.91 fold
Kd [5]: 770 nM
Fold vs WT IgG1 [6]: 1.17 fold
Kd [6]: 553 nM
Fold vs WT IgG1 [7]: 3.13 fold
Kd [7]: 274 nM

B5: L235Y (antibody, human IgG1, kappa)
heavy: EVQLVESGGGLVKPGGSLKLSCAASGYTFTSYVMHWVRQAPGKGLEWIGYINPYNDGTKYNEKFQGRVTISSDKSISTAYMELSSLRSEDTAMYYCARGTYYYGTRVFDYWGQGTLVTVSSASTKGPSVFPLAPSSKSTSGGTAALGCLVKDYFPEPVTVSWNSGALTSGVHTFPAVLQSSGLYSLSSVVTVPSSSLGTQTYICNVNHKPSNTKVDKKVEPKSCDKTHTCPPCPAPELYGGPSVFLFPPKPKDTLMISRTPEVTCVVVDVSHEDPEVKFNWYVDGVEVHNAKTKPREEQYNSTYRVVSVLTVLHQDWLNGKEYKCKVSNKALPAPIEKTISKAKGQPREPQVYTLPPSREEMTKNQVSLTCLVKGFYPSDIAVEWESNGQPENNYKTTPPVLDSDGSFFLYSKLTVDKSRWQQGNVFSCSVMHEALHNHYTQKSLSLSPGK
light: DIVMTQSPATLSLSPGERATLSCRSSKSLQNVNGNTYLYWFQQKPGQSPQLLIYRMSNLNSGVPDRFSGSGSGTEFTLTISSLEPEDFAVYYCMQHLEYPITFGAGTKLEIKRTVAAPSVFIFPPSDEQLKSGTASVVCLLNNFYPREAKVQWKVDNALQSGNSQESVTEQDSKDSTYSLSSTLTLSKADYEKHKVYACEVTHQGLSSPVTKSFNRGEC
notes: as for B1
Fold vs WT IgG1 (off-rate) (cynoFcγRIIb [1]): 0.92 fold
Fold vs WT IgG1 (off-rate) (cynoFcγRIIIa): 0.535 fold
Fold vs WT IgG1 (off-rate) (mFcγRIIb [2]): 1.02 fold
Fold vs WT IgG1 (off-rate) (mFcγRIV): 0.507 fold
Fold vs WT IgG1 [3]: 0.504 fold
Kd [3]: 380 nM
Fold vs WT IgG1 [4]: 0.00232 fold
Kd [4]: 142 nM
Fold vs WT IgG1 [5]: 1.05 fold
Kd [5]: 1400 nM
Fold vs WT IgG1 [6]: 1.35 fold
Kd [6]: 479 nM
Fold vs WT IgG1 [7]: 1.28 fold
Kd [7]: 669 nM

B6: L234F (antibody, human IgG1, kappa)
heavy: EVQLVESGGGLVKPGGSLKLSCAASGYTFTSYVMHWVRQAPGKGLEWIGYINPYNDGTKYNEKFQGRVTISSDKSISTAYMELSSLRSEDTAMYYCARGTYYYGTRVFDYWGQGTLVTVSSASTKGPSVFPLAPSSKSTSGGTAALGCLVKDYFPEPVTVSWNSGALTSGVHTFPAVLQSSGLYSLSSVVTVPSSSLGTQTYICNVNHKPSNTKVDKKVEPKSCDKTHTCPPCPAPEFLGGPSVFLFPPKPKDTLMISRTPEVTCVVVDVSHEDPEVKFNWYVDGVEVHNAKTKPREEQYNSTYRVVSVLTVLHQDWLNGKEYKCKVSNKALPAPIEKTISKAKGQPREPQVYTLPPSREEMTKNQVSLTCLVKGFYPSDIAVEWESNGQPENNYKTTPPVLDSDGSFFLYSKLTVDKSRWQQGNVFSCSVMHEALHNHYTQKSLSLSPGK
light: DIVMTQSPATLSLSPGERATLSCRSSKSLQNVNGNTYLYWFQQKPGQSPQLLIYRMSNLNSGVPDRFSGSGSGTEFTLTISSLEPEDFAVYYCMQHLEYPITFGAGTKLEIKRTVAAPSVFIFPPSDEQLKSGTASVVCLLNNFYPREAKVQWKVDNALQSGNSQESVTEQDSKDSTYSLSSTLTLSKADYEKHKVYACEVTHQGLSSPVTKSFNRGEC
notes: as for B1
Fold vs WT IgG1 (off-rate) (cynoFcγRIIb [1]): 0.936 fold
Fold vs WT IgG1 (off-rate) (cynoFcγRIIIa): 0.561 fold
Fold vs WT IgG1 (off-rate) (mFcγRIV): 0.144 fold
binding result (mFcγRIIb [8]): no binding
binding result [3]: no binding
Fold vs WT IgG1 [4]: 0.0362 fold
Kd [4]: 9.11 nM
Fold vs WT IgG1 [5]: 0.409 fold
Kd [5]: 3590 nM
binding result [6]: no binding
Fold vs WT IgG1 [7]: 0.228 fold
Kd [7]: 3760 nM
